Here are results for one protein from article PMC11410943.

Substrate in this data set: Cn1c(=O)ccc2ccc(F)c(CCNC[C@H]3CN(c4cnc5c(n4)NC(=O)CO5)C(=O)O3)c21
Put plainly: OAT3 transport in HEK293 cells. To be noted: other: HEK293; 37.0 °C. Format: in vitro ADME, human.

B1: OAT3 (Homo sapiens) (protein)
chain: MTFSEILDRVGSMGHFQFLHVAILGLPILNMANHNLLQIFTAATPVHHCRPPHNASTGPWVLPMGPNGKPERCLRFVHPPNASLPNDTQRAMEPCLDGWVYNSTKDSIVTEWDLVCNSNKLKEMAQSIFMAGILIGGLVLGDLSDRFGRRPILTCSYLLLAASGSGAAFSPTFPIYMVFRFLCGFGISGITLSTVILNVEWVPTRMRAIMSTALGYCYTFGQFILPGLAYAIPQWRWLQLTVSIPFFVFFLSSWWTPESIRWLVLSGKSSKALKILRRVAVFNGKKEEGERLSLEELKLNLQKEISLAKAKYTASDLFRIPMLRRMTFCLSLAWFATGFAYYSLAMGVEEFGVNLYILQIIFGGVDVPAKFITILSLSYLGRHTTQAAALLLAGGAILALTFVPLDLQTVRTVLAVFGKGCLSSSFSCLFLYTSELYPTVIRQTGMGVSNLWTRVGSMVSPLVKITGEVQPFIPNIIYGITALLGGSAALFLPETLNQPLPETIEDLENWSLRAKKPKQEPEVEKASQRIPLQPHGPGLGSS
For the protein B1, the Km is 121 µM and the Vmax is 76.1 pmol/mg/min.
